Assay results reported in patent publication US20220259289A1 (Janssen / Centocor, published 2022).
Numbering of substitutions follows the chain as printed.

B1: ISOP193ER9P1A10 (designed binder, not shown: small tags and cut ends)
chain: LPAPKNLVVSRVTEDSARLSWTAPDAAFDSFDIYYFEHPVGGEAIVLTVPGSERSYDLTGLKPGTEYLVTIYGVKGGHFSGPLSAIFTT
B2: ISOP193ER9P1G5 (designed binder, not shown: small tags and cut ends)
chain: B1 chain with H78Y, F79L, G81M
B3: ISOP193FR9P1G2 (designed binder, not shown: small tags and cut ends)
chain: B1 chain with D32T, H38N, P39E, V40N, G64D, F79W, G81R
B4: ISOP193FR9P1G10 (designed binder, not shown: small tags and cut ends)
chain: B1 chain with D32T, H38N, P39E, V40N, F79W, G81R
B5: ISOP193HR9P1A10 (designed binder, not shown: small tags and cut ends)
chain: B1 chain with F36L, H38P, P39W, V40G, L68W, G76V, G77C, H78L, F79G, G81N
B6: ISOP193FR9P1A11 (designed binder, not shown: small tags and cut ends)
chain: B1 chain with D32A, Y34Q, F36W, H38G, P39W, V40E, G41W, F79W, G81R
B7: ISOP193ER9P1D7 (designed binder, not shown: small tags and cut ends)
chain: B1 chain with F36G, P39W, V40K, G41L, H78M, F79S, G81N
B8: ISOP193ER9P1B4 (designed binder, not shown: small tags and cut ends)
chain: B1 chain with R11H, H78Y, F79L, G81M
B9: ISOP193ER9P1F9 (designed binder, not shown: small tags and cut ends)
chain: B1 chain with D32H, F36G, P39Y, V40N, G41L, H78F, F79W, G81T
B10: ISOP193ER9P1G4 (designed binder, not shown: small tags and cut ends)
chain: B1 chain with H78N, G81F
B11: ISOP193BR9P1H3 (designed binder, not shown: small tags and cut ends)
chain: LPAPKNLVVSRVTEDSARLSWNRLDSEWVAFDSFLIQYQESEKVGEAIVLTVPGSERSYDLTGLKPGTEYTVSIYGVVFRPWLAYNSNPLSAIFTT
B12: ISOP120FR5P1D7 (designed binder, not shown: small tags and cut ends)
chain: LPAPKNLVVSRVTEDSARLSWTAPDAAFDSFIIRYLEDISYGEAIVLTVPGSERSYDLTGLKPGTEYHVGIEGVKGGNVSWPLSAIFTT
B13: ISOP120FR5P1F8 (designed binder, not shown: small tags and cut ends)
chain: B12 chain
B14: ISOP193AR9P1A6 (designed binder, not shown: small tags and cut ends)
chain: LPAPKNLVVSRVTEDSARLSWKFGEVAFDSFLIQYQESEKVGEAIVLTVPGSERSYDLTGLKPGTEYTVSIYGVGRHYTVYDSNPLSAIFTT
B15: ISOP193AR9P1C10 (designed binder, not shown: small tags and cut ends)
chain: B14 chain with K22P, F23N, G24H, E25I, V26S, A27I, H77F, Y81F
B16: ISOP193AR9P1E6 (designed binder, not shown: small tags and cut ends)
chain: B14 chain with G24H, E25S, V26P, A27T, F90V
B17: ISOP193AR9P1F4 (designed binder, not shown: small tags and cut ends)
chain: LPAPKNLVVSRVTEDSARLSWLEQEQFVNHFDSFLIQYQESEKVGEAIVLTVPGSERSYDLTGLKPGTEYTVSIYGVQYVDGFFKSNPLSAIFTT
B18: ISOP193BR9P1G3 (designed binder, not shown: small tags and cut ends)
chain: LPAPKNLVVSRVTEDSARLSWAQSNQQFDSFLIQYQESEKVGEAIVLTVPGSERSYDLTGLKPGTEYTVSIYGVVWQNWVAYNSNPLSAIFTT
B19: ISOP193BR9P1E6 (designed binder, not shown: small tags and cut ends)
chain: LPAPKNLVVSRVTEDSARLSWGAITALFDSFLIQYQESEKVGEAIVLTVPGSERSYDLTGLKPGTEYTVSIYGVKFPYYYATADSNPLSAIFTT
B20: ISOP193AR9P1A11 (designed binder, not shown: small tags and cut ends)
chain: LPAPKNLVVSRVTEDSARLSWALSSVHAYFDSFLIQYQESEKVGEAIVLTVPGSERSYDLTGLKPGTEYTVSIYGVQYVDGFFKSNPLSAIFTT
B21: ISOP193AR9P1B12 (designed binder, not shown: small tags and cut ends)
chain: LPAPKNLVVSRVTEDSARLSWTNEQITKYGFDSFLIQYQESEKVGEAIVLTVPGSERSYDLTGLKPGTEYTVSIYGVGAPYTVYDSNPLSAIFTT
B22: ISOP193AR9P1H8 (designed binder, not shown: small tags and cut ends)
chain: B21 chain with A79R, P80F, Y84F
B23: ISOP193BR9P1G9 (designed binder, not shown: small tags and cut ends)
chain: LPAPKNLVVSRVTEDSARLSWKQVTVAPEFDSFLIQYQESEKVGEAIVLTVPGSERSYDLTGLKPGTEYTVSIYGVKFPYYYATADSNPLSAIFTT
B24: ISOP193BR9P1B12 (designed binder, not shown: small tags and cut ends)
chain: LPAPKNLVVSRVTEDSARLSWPDESRPVRFDSFLIQYQESEKVGEAIVLTVPGSERSYDLTGLKPGTEYTVSIYGVLRPWIYATNDSNPLSAIFTT
B25: ISOP193BR9P1H6 (designed binder, not shown: small tags and cut ends)
chain: B24 chain with L77V, R78G, P79Q, I81K, N85A
B26: ISOP193BR9P1H2 (designed binder, not shown: small tags and cut ends)
chain: B24 chain with L77H, R78T, P79R, W80D, I81W, Y82T, T84W, D86A
B27: ISOP193BR9P1G11 (designed binder, not shown: small tags and cut ends)
chain: LPAPKNLVVSRVTEDSARLSWAGHYRKIRNFDSFLIQYQESEKVGEAIVLTVPGSERSYDLTGLKPGTEYTVSIYGVKFPYYYATADSNPLSAIFTT
B28: ISOP193BR9P1G2 (designed binder, not shown: small tags and cut ends)
chain: B27 chain with K78A, F79E, P80H, Y81W, A86Q
B29: ISOP193AR9P1G8 (designed binder, not shown: small tags and cut ends)
chain: LPAPKNLVVSRVTEDSARLSWHATFGDPFDSFLIQYQESEKVGEAIVLTVPGSERSYDLTGLKPGTEYTVSIYGVGRHYTVYDSNPLSAIFTT
B30: ISOP193AR9P1G5 (designed binder, not shown: small tags and cut ends)
chain: LPAPKNLVVSRVTEDSARLSWRISDRLPLFDSFLIQYQESEKVGEAIVLTVPGSERSYDLTGLKPGTEYTVSIYGVGRHYTVYDSNPLSAIFTT
B31: ISOP193BR9P1G6 (designed binder, not shown: small tags and cut ends)
chain: LPAPKNLVVSRVTEDSARLSWDDQFEDWFDSFLIQYQESEQVGEAIVLTVPGSERSYDLTGLKPGTEYTVSIYGVHTRDWTAWNASNPLSAIFTT

Assays:
human serum albumin = molecular target: T1, human serum albumin (human, UniProt P02768 25-609); assay: ELISA, negative control HSA
T1 construct: Negative control of the ELISA; also called HSA
T1 sequence (P02768 25-609 limits assumed): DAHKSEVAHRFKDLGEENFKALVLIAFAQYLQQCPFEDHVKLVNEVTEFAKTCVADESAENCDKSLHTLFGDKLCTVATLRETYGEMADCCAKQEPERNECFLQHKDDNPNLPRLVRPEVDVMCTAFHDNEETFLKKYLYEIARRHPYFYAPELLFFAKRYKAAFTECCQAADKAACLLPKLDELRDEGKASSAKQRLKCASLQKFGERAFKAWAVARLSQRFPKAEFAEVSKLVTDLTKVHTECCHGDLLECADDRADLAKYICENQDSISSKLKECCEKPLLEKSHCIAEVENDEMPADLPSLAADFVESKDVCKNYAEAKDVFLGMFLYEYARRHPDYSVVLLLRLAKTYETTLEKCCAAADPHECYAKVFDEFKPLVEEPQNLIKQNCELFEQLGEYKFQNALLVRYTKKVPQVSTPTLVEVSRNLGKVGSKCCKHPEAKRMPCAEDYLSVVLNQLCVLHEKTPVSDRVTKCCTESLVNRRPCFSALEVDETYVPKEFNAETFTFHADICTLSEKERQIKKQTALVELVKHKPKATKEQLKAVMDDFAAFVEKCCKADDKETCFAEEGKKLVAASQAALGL
Description: (§1) Streptavidin-coated Maxisorp plates (Nunc catalog 436110) were blocked for 1 h in Starting Block T20 (Pierce) and then coated with biotinylated CD137 (using same antigen as in panning) or negative controls (an unrelated Fc-fused recombinant protein and human serum albumin) for 1 h. Plates were rinsed with TBST and diluted lysate was applied to plates for 1 h. Following additional rinses, wells were treated with HRP-conjugated anti-Centyrin antibody (PAB25) for 1 h and then assayed with POD (Roche catalog 11582950001).

[1] = molecular target: unrelated Fc-fused recombinant protein; assay: ELISA, negative control Fc protein
[2] = molecular target: T2, recombinant biotinylated CD137 protein (Fc-fusion protein, R&D Systems 838-4B) (human, UniProt Q07011 24-186, biotinylated, sites not stated); assay: ELISA, lysate on biotinylated CD137-Fc
T2 construct: Bought Fc fusion; also called CD137-Fc
Description: as §1

[3] = molecular target: unrelated Fc-fused recombinant protein (negative control); assay: ELISA, bacterial lysate on plate-bound antigen, luminescence

Binder	ELISA HSA (RLU) (human serum albumin)	ELISA Fc Control (RLU) [1]	ELISA CD137 (RLU) [2]	ELISA Fc Control (RLU) [3]
B1	240 RLU	1120 RLU	1.49e+07 RLU	–
B2	–	1440 RLU	–	–
B3	880 RLU	2560 RLU	7.86e+06 RLU	–
B4	880 RLU	2480 RLU	8.91e+06 RLU	–
B5	1520 RLU	5680 RLU	1.27e+07 RLU	–
B6	880 RLU	3520 RLU	5.78e+06 RLU	–
B7	400 RLU	1680 RLU	1.1e+07 RLU	–
B8	320 RLU	1600 RLU	1.61e+07 RLU	–
B9	400 RLU	1840 RLU	1.5e+07 RLU	–
B10	320 RLU	1440 RLU	1.38e+07 RLU	–
B11	1360 RLU	2080 RLU	5.26e+06 RLU	–
B12	–	–	–	400 RLU
B13	–	–	–	240 RLU
B14	480 RLU	960 RLU	6.74e+06 RLU	–
B15	960 RLU	3520 RLU	7.14e+06 RLU	–
B16	720 RLU	1200 RLU	4.18e+06 RLU	–

Binder	ELISA HSA (RLU) (human serum albumin)	ELISA Fc Control (RLU) [1]	ELISA CD137 (RLU) [2]	ELISA Fc Control (RLU) [3]
B17	720 RLU	1520 RLU	3.84e+06 RLU	–
B18	640 RLU	1360 RLU	4.71e+06 RLU	–
B19	560 RLU	2560 RLU	4.63e+06 RLU	–
B20	320 RLU	1440 RLU	8.66e+06 RLU	–
B21	1440 RLU	2240 RLU	2.76e+06 RLU	–
B22	1040 RLU	3040 RLU	3.72e+06 RLU	–
B23	720 RLU	1200 RLU	3.73e+06 RLU	–
B24	2880 RLU	14000 RLU	6.55e+06 RLU	–
B25	2880 RLU	8320 RLU	8.86e+06 RLU	–
B26	3280 RLU	11800 RLU	3.5e+06 RLU	–
B27	9600 RLU	56900 RLU	4.99e+06 RLU	–
B28	2160 RLU	15900 RLU	6.15e+06 RLU	–
B29	720 RLU	1440 RLU	4.26e+06 RLU	–
B30	720 RLU	1120 RLU	4.02e+06 RLU	–
B31	960 RLU	2640 RLU	8.09e+06 RLU	–
